Consider 16 molecules from US20060269997A1 (Genentech, published 2006).

The target of test [1] is gD-KDR receptor on CHO cells (UniProt P35968 20-1356). Description: cell-based or functional assay.
Test [2] concerns the target T1, KDR (1-3) monomer (UniProt P35968 20-327, limits assumed, biotin-labeled in the ELISA of Example 8).
T1 construct: domain: domains 1 to 3; Genentech reagent; also called domains 1 to 3 of KDR
Description: competition ELISA vs biotinylated VEGF (8-109), soluble KDR (1-3) captured by MAKD5. As for the experimental part: Receptor binding assays were performed in 96-well immunoplates (Maxisorp, Nunc-Immunoplate, Nalge Nunc International, Rochester, N.Y.). Each well was coated with 100 μl of a solution containing 8 μg/ml of a monoclonal antibody to KDR known as MAKD5 (Genentech, South San Francisco, Calif.) in 50 mM carbonate buffer at pH 9.6 and incubated at 4° C. overnight. The supernatant was discarded, the wells were washed three times in washing buffer (0.05% Tween 20 in PBS), and the plate was blocked (150 μl per well) with block buffer (0.5% BSA, 0.01% thimerosal in PBS) at room temperature for one hour. The supernatant was discarded, and the wells were washed.
Aliquots of this mixture (100 μl) were added to the precoated microtiter wells and the plate was incubated for 1 hour at room temperature. […] The wells were then incubated with 3,3′, 5,5′-tetramethyl benzidine (0.2 gram/liter; Kirkegaard & Perry Laboratories, Gaithersburg, Md.) for about 10 minutes at room temperature. Absorbance was read at 450 nm on a Vmax plate reader (Molecular Devices, Menlo Park, Calif.).
Titration curves were fit with a four-parameter nonlinear regression curve-fitting program (KaleidaGraph, Synergy Software, Reading, Pa.).
(ELISA stands for enzyme-linked immunosorbent assay.)

In test [3] the target is T2, Flt-IgG (a chimeric Flt-human Fc molecule) (UniProt P17948 27-758, limits assumed).
T2 construct: Only described as a chimeric Flt-human Fc molecule; not shown: human Fc
Description: competition ELISA vs biotinylated native VEGF, Flt-IgG captured by anti-Fc. As for the experimental part:
Receptor binding assays were performed in 96-well immunoplates (Maxisorp, Nunc-Immunoplate, Nalge Nunc International, Rochester, N.Y.). Each well was coated with 100 μl of a solution containing 2 μg/ml of rabbit F(ab′)2 to human IgG Fc (Jackson ImmunoResearch, West Grove, Pa.) in 50 mM carbonate buffer at pH 9.6 and incubated at 4° C. overnight. The supernatant was then discarded, the wells were washed three times in washing buffer (0.05% Tween 20 in PBS), and the plate was blocked (150 μl per well) with block buffer (0.5% BSA, 0.01% thimerosal in PBS) at room temperature for one hour. The supernatant was discarded, and the wells were washed.
The wells were filled with 100 μl of a solution containing Flt-IgG (a chimeric Flt-human Fc molecule) at 50 ng/ml in assay buffer (0.5% BSA, 0.05% Tween 20 in PBS). The wells were incubated at room temperature for 1 hour and then washed three times in wash buffer (0.05% Tween 20 in PBS).
Aliquots of the mixture (100 μl) were added to the precoated microtiter wells and the plate was incubated for 2 hours at room temperature. […] The wells were then incubated with 3,3′, 5,5′-tetramethyl benzidine (0.2 g/liter, Kirkegaard & Perry Laboratories, Gaithersburg, Md.) for about 10 minutes at room temperature. Absorbance was read at 450 nm on a Vmax plate reader (Molecular Devices, Menlo Park, Calif.).

Another test addresses T3, Flt-1 (1-3) monomer (UniProt P17948 27-331, limits assumed, biotin-labeled in the ELISA of Example 8).
T3 construct: domain: domains 1 to 3; Genentech reagent; also called Flt(1-3); domains 1 to 3 of Flt-1
Description: competition ELISA: plate coated with VEGF (8-109), 100 pM biotin-labeled Flt1(1-3), serial dilutions of the competing VEGF (Example 8). Here is the method: (§1) After 1 hour, the plates were washed, and the bound protein stained with streptavidin horseradish peroxidase conjugate (Pharmacia) and assayed. Affinities were estimated as IC₅₀ values: the concentration of KDR(1-3) or Flt(1-3) that blocked 50% of protein binding.

The target in test [4] is T1, KDR (1-3) monomer. Description: competition ELISA: plate coated with VEGF (8-109), 100 pM biotin-labeled KDR(1-3), serial dilutions of the competing VEGF (Example 8). Here is the method: as §1

T1 sequence (P35968 20-327 limits assumed): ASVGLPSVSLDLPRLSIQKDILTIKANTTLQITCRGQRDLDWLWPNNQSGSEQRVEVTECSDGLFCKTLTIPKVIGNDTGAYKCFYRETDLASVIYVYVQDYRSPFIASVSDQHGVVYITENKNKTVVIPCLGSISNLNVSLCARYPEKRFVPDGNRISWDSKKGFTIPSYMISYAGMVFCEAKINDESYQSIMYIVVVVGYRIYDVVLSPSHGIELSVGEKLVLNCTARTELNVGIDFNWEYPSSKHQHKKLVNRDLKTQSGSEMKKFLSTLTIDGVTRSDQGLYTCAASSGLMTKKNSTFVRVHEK
T2 sequence (P17948 27-758 limits assumed, change not shown): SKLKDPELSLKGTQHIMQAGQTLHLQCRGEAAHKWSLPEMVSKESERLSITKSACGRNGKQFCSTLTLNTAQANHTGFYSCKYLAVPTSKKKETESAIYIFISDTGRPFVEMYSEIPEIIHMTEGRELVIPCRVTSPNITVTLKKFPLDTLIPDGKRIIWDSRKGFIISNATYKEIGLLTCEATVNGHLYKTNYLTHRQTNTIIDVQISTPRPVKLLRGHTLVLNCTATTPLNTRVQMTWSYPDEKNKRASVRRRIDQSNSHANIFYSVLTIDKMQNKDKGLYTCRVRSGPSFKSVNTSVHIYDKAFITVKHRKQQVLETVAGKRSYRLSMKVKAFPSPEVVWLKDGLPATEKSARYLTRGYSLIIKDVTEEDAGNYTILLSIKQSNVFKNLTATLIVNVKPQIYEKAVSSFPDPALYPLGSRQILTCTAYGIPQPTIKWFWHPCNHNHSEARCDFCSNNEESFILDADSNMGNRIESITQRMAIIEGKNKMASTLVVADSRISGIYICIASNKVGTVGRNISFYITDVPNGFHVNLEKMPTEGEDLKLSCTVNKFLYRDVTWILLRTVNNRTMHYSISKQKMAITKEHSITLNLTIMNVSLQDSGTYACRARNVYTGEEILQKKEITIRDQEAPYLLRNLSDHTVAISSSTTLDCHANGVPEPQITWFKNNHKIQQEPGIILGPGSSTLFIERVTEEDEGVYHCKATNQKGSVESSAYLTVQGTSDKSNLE
T3 sequence (P17948 27-331 limits assumed): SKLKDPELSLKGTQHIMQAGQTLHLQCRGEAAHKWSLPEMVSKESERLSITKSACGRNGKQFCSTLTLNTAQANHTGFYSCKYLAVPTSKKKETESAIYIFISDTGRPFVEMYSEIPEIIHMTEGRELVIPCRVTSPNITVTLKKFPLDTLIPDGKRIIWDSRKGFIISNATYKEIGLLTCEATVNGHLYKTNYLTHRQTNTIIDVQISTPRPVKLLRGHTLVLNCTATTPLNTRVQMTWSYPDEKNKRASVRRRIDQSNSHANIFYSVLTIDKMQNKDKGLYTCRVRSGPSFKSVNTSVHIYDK

B1: LK-VRB-5s (ligand, human, UniProt P15692-4 27-135, looked up)
chain: APMAEGGGQNHHEVVKFMDVYQRSYCHPIETLVDIFQEYPDEIEYIFKPSCVPLMRCGGCCNSEGRECVPTEESNITMQIMRIKPHQGQHIGEMSFLQHNKCECRPKKD
Broadly, the IC50 is the concentration that inhibits the measured activity by half. Turning to B1, in test [1], the “Phosphorylation-Inducing Activity (KIRA), midpoint concentration” value was determined as 1 nM and the “Phosphorylation-Inducing Activity (KIRA), ratio to native VEGF (8-109)” value came out at 0.5 fold. In the test with KDR (1-3) monomer [2], the IC50 is 1 nM and the “Relative Binding Affinity (ratio to native VEGF (8-109))” value came out at 1 fold. In addition, in test [3], the IC50 turned out to be 233 nM and the “Relative Binding Affinity (ratio to native VEGF (8-109))” value was found to be 550 fold.

B2: Tyr 21** (ligand)
chain: APMAEGGGQNHHEVVKFMDVAQRSYCHPIETLVDIFQEYPDEIEYIFKPSCVPLMRCGGCCNDEGLECVPTEESNITMQIMRIKPHQGQHIGEMSFLQHNKCECRPKKD
For the molecule B2, the “fold reduction in binding (IC50 variant / IC50 VEGF(1-109))” value was 29 fold in the test with Flt-1 (1-3) monomer and 19 fold in the test with KDR (1-3) monomer [4].

B3: Pro 106 (ligand)
chain: APMAEGGGQNHHEVVKFMDVYQRSYCHPIETLVDIFQEYPDEIEYIFKPSCVPLMRCGGCCNDEGLECVPTEESNITMQIMRIKPHQGQHIGEMSFLQHNKCECRAKKD
Take B3: the “fold reduction in binding (IC50 variant / IC50 VEGF(1-109))” value with Flt-1 (1-3) monomer and in the test with KDR (1-3) monomer [4] was 1 fold throughout.

B4: Phe 17* (ligand)
chain: APMAEGGGQNHHEVVKAMDVYQRSYCHPIETLVDIFQEYPDEIEYIFKPSCVPLMRCGGCCNDEGLECVPTEESNITMQIMRIKPHQGQHIGEMSFLQHNKCECRPKKD
For the molecule B4, the results for the “fold reduction in binding (IC50 variant / IC50 VEGF(1-109))” value with Flt-1 (1-3) monomer and in the test with KDR (1-3) monomer [4] were 34 fold and 45 fold, respectively.

B5: LK-VRB-4s (ligand, human, UniProt P15692-4 27-135, looked up)
chain: APMAEGGGQNHHEVVKIEDVFERSICHPIETLVDIFQEYPDEIEYIFKPSCVPLMRCGGCCNDEGLECVPTEESNITMQIMRIKPHQGQHIGEMSFLQHNKCECRPKKD
Consider B5, for which, in test [1], the “Phosphorylation-Inducing Activity (KIRA), midpoint concentration” value was 1 nM and the “Phosphorylation-Inducing Activity (KIRA), ratio to native VEGF (8-109)” value turned out to be 0.5 fold. Moreover, in the test with KDR (1-3) monomer [2], the IC50 stood at 1 nM and the “Relative Binding Affinity (ratio to native VEGF (8-109))” value was found to be 1 fold. For the same molecule, in test [3], the IC50 is 100 nM and the “Relative Binding Affinity (ratio to native VEGF (8-109))” value is 200 fold.

B6: LK-VRB-3s (ligand, human, UniProt P15692-4 27-135, looked up)
chain: APMAEGGGQNHHEVVKIEDVFKRSSCHPIETLVDIFQEYPDEIEYIFKPSCVPLMRCGGCCNDEGLECVPTEESNITMQIMRIKPHQGQHIGEMSFLQHNKCECRPKKD
Regarding B6, in test [1], the “Phosphorylation-Inducing Activity (KIRA), midpoint concentration” value was determined as 2 nM and the “Phosphorylation-Inducing Activity (KIRA), ratio to native VEGF (8-109)” value was 1 fold. Moreover, in the test with KDR (1-3) monomer [2], the IC50 was found to be 1 nM and the “Relative Binding Affinity (ratio to native VEGF (8-109))” value is 1 fold. In test [3], the IC50 turned out to be 170 nM and the “Relative Binding Affinity (ratio to native VEGF (8-109))” value is 400 fold.

B7: LK-VRB-9s (ligand, human, UniProt P15692-4 27-135, looked up)
chain: APMAEGGGQNHHEVVKFMDVYRRSYCHPIETLVDIFQEYPDEIEYIFKPSCVPLMRCGGCCNSEMRECVPTEESNITMQIMRIKPHQGQHIGEMSFLQHNKCECRPKKD
With B7, in the test with KDR (1-3) monomer [2], the IC50 turned out to be 0.5 nM and the “Relative Binding Affinity (ratio to native VEGF (8-109))” value came out at 0.5 fold. In test [3], the “Relative Binding Affinity (ratio to native VEGF (8-109))” value came out at 300 fold.

B8: Met 18** (ligand)
chain: APMAEGGGQNHHEVVKFADVYQRSYCHPIETLVDIFQEYPDEIEYIFKPSCVPLMRCGGCCNDEGLECVPTEESNITMQIMRIKPHQGQHIGEMSFLQHNKCECRPKKD
As to B8, the entries for the “fold reduction in binding (IC50 variant / IC50 VEGF(1-109))” value with Flt-1 (1-3) monomer and with KDR (1-3) monomer [4] were 9 fold and 5 fold, respectively.

B9: Leu 66** (ligand)
chain: APMAEGGGQNHHEVVKFMDVYQRSYCHPIETLVDIFQEYPDEIEYIFKPSCVPLMRCGGCCNDEGAECVPTEESNITMQIMRIKPHQGQHIGEMSFLQHNKCECRPKKD
With B9, the “fold reduction in binding (IC50 variant / IC50 VEGF(1-109))” value with Flt-1 (1-3) monomer amounted to 10 fold; in the test with KDR (1-3) monomer [4], 1 fold.

B10: LK-VRB-6s (ligand, human, UniProt P15692-4 27-135, looked up)
chain: APMAEGGGQNHHEVVKFMDVYQRSYCHPIETLVDIFQEYPDEIEYIFKPSCVPLMRCGGCCNSEATECVPTEESNITMQIMRIKPHQGQHIGEMSFLQHNKCECRPKKD
In the case of B10, in test [1], the “Phosphorylation-Inducing Activity (KIRA), midpoint concentration” value was determined as 1 nM and the “Phosphorylation-Inducing Activity (KIRA), ratio to native VEGF (8-109)” value stood at 0.5 fold. Moreover, in the test with KDR (1-3) monomer [2], the IC50 was found to be 0.5 nM and the “Relative Binding Affinity (ratio to native VEGF (8-109))” value came out at 0.5 fold. Also, in test [3], the IC50 was 4 nM and the “Relative Binding Affinity (ratio to native VEGF (8-109))” value came out at 10 fold.

B11: Met 81** (ligand)
chain: APMAEGGGQNHHEVVKFMDVYQRSYCHPIETLVDIFQEYPDEIEYIFKPSCVPLMRCGGCCNDEGLECVPTEESNITMQIARIKPHQGQHIGEMSFLQHNKCECRPKKD
For the molecule B11, the figures for the “fold reduction in binding (IC50 variant / IC50 VEGF(1-109))” value in the test with Flt-1 (1-3) monomer and with KDR (1-3) monomer [4] were 5 fold and 9 fold, respectively.

B12: Lys 48** (ligand)
chain: APMAEGGGQNHHEVVKFMDVYQRSYCHPIETLVDIFQEYPDEIEYIFAPSCVPLMRCGGCCNDEGLECVPTEESNITMQIMRIKPHQGQHIGEMSFLQHNKCECRPKKD
B12: the “fold reduction in binding (IC50 variant / IC50 VEGF(1-109))” value with Flt-1 (1-3) monomer and with KDR (1-3) monomer [4] was 1 fold throughout.

B13: Phe 47** (ligand)
chain: APMAEGGGQNHHEVVKFMDVYQRSYCHPIETLVDIFQEYPDEIEYIAKPSCVPLMRCGGCCNDEGLECVPTEESNITMQIMRIKPHQGQHIGEMSFLQHNKCECRPKKD
With B13, the “fold reduction in binding (IC50 variant / IC50 VEGF(1-109))” value with Flt-1 (1-3) monomer was 3 fold; with KDR (1-3) monomer [4], 5 fold.

B14: Lys 16 (ligand)
chain: APMAEGGGQNHHEVVAFMDVYQRSYCHPIETLVDIFQEYPDEIEYIFKPSCVPLMRCGGCCNDEGLECVPTEESNITMQIMRIKPHQGQHIGEMSFLQHNKCECRPKKD
Take B14: the “fold reduction in binding (IC50 variant / IC50 VEGF(1-109))” value with Flt-1 (1-3) monomer and with KDR (1-3) monomer [4] was 1 fold in each case.

B15: Tyr 25** (ligand)
chain: APMAEGGGQNHHEVVKFMDVYQRSACHPIETLVDIFQEYPDEIEYIFKPSCVPLMRCGGCCNDEGLECVPTEESNITMQIMRIKPHQGQHIGEMSFLQHNKCECRPKKD
For B15, the “fold reduction in binding (IC50 variant / IC50 VEGF(1-109))” value in the test with Flt-1 (1-3) monomer was found to be 7 fold; with KDR (1-3) monomer [4] it was 6 fold.

B16: Lys 101 (ligand)
chain: APMAEGGGQNHHEVVKFMDVYQRSYCHPIETLVDIFQEYPDEIEYIFKPSCVPLMRCGGCCNDEGLECVPTEESNITMQIMRIKPHQGQHIGEMSFLQHNACECRPKKD
As to B16, the “fold reduction in binding (IC50 variant / IC50 VEGF(1-109))” value in the test with Flt-1 (1-3) monomer and with KDR (1-3) monomer [4] was 1 fold each time.
